Measurements taken from article PMC5365139.
Changes are numbered by the printed parent chain.

Key:
Test in all cases: fluorescence anisotropy
InrS H21E = biological target: T1, InrS H21E (Synechocystis PCC 6803, UniProt Q55554 61-167, H81E)
T1 sequence: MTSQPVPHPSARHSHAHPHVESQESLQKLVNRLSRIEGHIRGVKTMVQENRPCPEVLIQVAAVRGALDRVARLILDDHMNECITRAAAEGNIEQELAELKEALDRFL

InrS = biological target: T2, InrS (Synechocystis PCC 6803, UniProt Q55554)
T2 sequence: T1 sequence with E21H

InrS H21L = biological target: T3, InrS H21L (Synechocystis PCC 6803, UniProt Q55554 61-167, H81L)
T3 sequence: T1 sequence with E21L

Measured: binding result

B1: nikProFA (dsDNA)
DNA 1: AAATCCATATCCCCCTTCCCCCCAGAGGGTATT
DNA 2: AATACCCTCTGGGGGGAAGGGGGATATGGATTT
binds: all assays above
